“And” between values parts separate entries of the source, which are not always exact repeats. Identical values can stand only once.
Columns and labels:
[1] = target: T1, SARS-CoV-2 nucleocapsid protein (Np) (SARS-CoV-2, UniProt P0DTC9 1-419); assay: EMSA; time course; conditions: protein: recombinant; tags: His (pET30a(+), Ni-NTA purified); chain copies: 2; label: 5'-FAM; single strand
[2] = target: T1, SARS-CoV-2 nucleocapsid protein (Np); assay: EMSA; conditions: protein: recombinant; tags: His (pET30a(+), Ni-NTA purified); chain copies: 2; label: 5'-FAM on the 18 mer
[3] = target: T1, SARS-CoV-2 nucleocapsid protein (Np); assay: EMSA; apparent, cooperative fit; conditions: protein: recombinant; tags: His (pET30a(+), Ni-NTA purified); chain copies: 2; label: 5'-FAM on the 18 mer
[4] = target: SARS-CoV-2 nucleocapsid protein (Np);DDX1 (SARS-CoV-2;Homo sapiens, UniProt P0DTC9;Q92499 1-419;1-740, |); assay: EMSA; Np titrated with fixed DDX1; conditions: protein: recombinant;recombinant; tags: His (pET30a(+), Ni-NTA purified);pET30a(+) vector; label: 5'-FAM on the 18 mer
[5] = target: SARS-CoV-2 nucleocapsid protein (Np);DDX3X (SARS-CoV-2;Homo sapiens, UniProt P0DTC9;O00571 1-419;1-662, |); assay: EMSA; Np titrated with fixed DDX3X; conditions: protein: recombinant;recombinant; tags: His (pET30a(+), Ni-NTA purified);pET30a(+) vector; label: 5'-FAM on the 18 mer

Binder | binding result [1] | Kd [2] | Kd [3] | Kd [4] | Kd [5]
CUCAACUCAAACCUUCAU (ssRNA) [ssRNA 18 mer FAM] | binds |  |  |  | 
18/38 mer FAM partially dsRNA (dsRNA) RNA 1: AUGAAGGUUUGAGUUGAGUGGAGAUAGUGGAGGGUAGU RNA 2: CUCAACUCAAACCUUCAU |  | 193 nM and 300 nM | 170 nM | 40 nM | 80 nM
